Test results as given in PMC12051234, “NrdR in Streptococcus and Listeria spp.: DNA Helix Phase Dependence of the Bacterial Ribonucleotide Reductase Repressor”.

T1: ScoNrdR (Streptomyces coelicolor, UniProt O69980 1-182)
T1 sequence: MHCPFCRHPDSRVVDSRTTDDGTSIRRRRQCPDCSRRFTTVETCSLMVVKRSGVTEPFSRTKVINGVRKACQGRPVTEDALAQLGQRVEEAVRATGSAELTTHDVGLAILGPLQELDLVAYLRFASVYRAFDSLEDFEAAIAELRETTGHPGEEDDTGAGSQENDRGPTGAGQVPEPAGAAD

T2: SpnNrdR (Streptococcus pneumoniae TIGR4, UniProt P67318 1-157)
T2 sequence: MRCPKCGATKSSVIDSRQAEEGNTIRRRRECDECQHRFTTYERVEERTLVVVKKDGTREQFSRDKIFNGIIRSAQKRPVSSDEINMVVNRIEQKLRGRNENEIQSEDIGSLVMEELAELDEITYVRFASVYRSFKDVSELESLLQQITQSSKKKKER

T3: LmoNrdR (Listeria monocytogenes serotype 1/2a …, UniProt Q8Y6W9 1-154)
T3 sequence: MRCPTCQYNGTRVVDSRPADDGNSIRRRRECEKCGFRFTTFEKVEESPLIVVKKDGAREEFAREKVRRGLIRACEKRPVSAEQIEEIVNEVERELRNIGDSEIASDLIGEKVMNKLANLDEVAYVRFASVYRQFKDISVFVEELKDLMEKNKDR

T4: EcoNrdR (Escherichia coli, UniProt P0A8D0 1-149)
T4 sequence: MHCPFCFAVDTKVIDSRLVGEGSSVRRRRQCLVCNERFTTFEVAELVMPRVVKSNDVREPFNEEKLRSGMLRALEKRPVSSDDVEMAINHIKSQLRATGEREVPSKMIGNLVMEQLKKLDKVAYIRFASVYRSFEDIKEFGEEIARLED


Experiments:
Assay in all cases: MST; dATP + ATP; MST, temperature not stated. Lmo: 25 mM Bis-Tris propane pH 6.5, 100 mM KCl, 5 mM MgCl2, 5% glycerol, 1 mM DTT, 0.05% Tween 20, one nucleotide 1 mM or two at 0.5 mM each; Spn: 25 mM HEPES pH 7.2, 250 mM NaCl, 2.5 mM MgCl2, 15% glycerol, 2 mM DTT, 0.1 mg/mL BSA, 0.05% Tween 20, 0.5 mM ATP and/or dATP; Eco: 25 mM Tris pH 8.5, 100 mM NaCl, 7 mM MgCl2, 1 mM DTT, 0.025% Tween 20, 1 mM ATP + 1 mM dATP; …
ScoNrdR = target: T1, ScoNrdR; conditions: protein: recombinant; chain copies: 4; label: 5'-Cy5 sense; blunt
SpnNrdR = target: T2, SpnNrdR; conditions: protein: recombinant; tags: C-terminal His6; chain copies: 4; label: 5'-Cy5 sense; blunt
LmoNrdR = target: T3, LmoNrdR; conditions: protein: recombinant; tags: C-terminal His6; chain copies: 4; label: 5'-Cy5 sense; blunt
EcoNrdR = target: T4, EcoNrdR; conditions: protein: recombinant; chain copies: 4; label: 5'-Cy5 sense; blunt

Binder | Kd (ScoNrdR) [nM] | Kd (SpnNrdR) [nM] | Kd (LmoNrdR) [nM] | Kd (EcoNrdR) [nM]
Synt 16 bp spacer (dsDNA) DNA 1: GCCAAACACAACATCTAGTGGTTGGATAGCGTGAAGCACACAACATCTAGTGGACCTC DNA 2: GAGGTCCACTAGATGTTGTGTGCTTCACGCTATCCAACCACTAGATGTTGTGTTTGGC | 28 ± 7 | 41 ± 11 | 1 ± 0.4 | 82 ± 22
Sth nrdHEF (16 bp spacer) (dsDNA) DNA 1: TCAAAACACAAGATATAGGGTTGTGTTTCAATACTAAACACAAAATATTGTATTCCTT DNA 2: AAGGAATACAATATTTTGTGTTTAGTATTGAAACACAACCCTATATCTTGTGTTTTGA | – | 800 ± 250 | – | –
Synt 24 bp spacer (dsDNA) DNA 1: GCCAAACACAACATCTAGTGGTTGGATAGCGTGAATTCACCTAGCACACAACATCTAGTGGACCTC DNA 2: GAGGTCCACTAGATGTTGTGTGCTAGGTGAATTCACGCTATCCAACCACTAGATGTTGTGTTTGGC | 763 ± 104 | 9200 ± 374 | 26 ± 3 | 141 ± 34
Synt 20 bp spacer (dsDNA) DNA 1: GCCAAACACAACATCTAGTGGTTGGATAGCGTGACAGTAGCACACAACATCTAGTGGACCTC DNA 2: GAGGTCCACTAGATGTTGTGTGCTACTGTCACGCTATCCAACCACTAGATGTTGTGTTTGGC | 2190 ± 449 | 12300 ± 388 | 122 ± 10 | 3320 ± 540
Synt 13 bp spacer (dsDNA) DNA 1: GCCAAACACAACATCTAGTGGTTGGATAGTGAGCACACAACATCTAGTGGACCTC DNA 2: GAGGTCCACTAGATGTTGTGTGCTCACTATCCAACCACTAGATGTTGTGTTTGGC | 158 ± 19 | 3940 ± 290 | 11 ± 1.8 | 117 ± 24
Synt 18 bp spacer (dsDNA) DNA 1: GCCAAACACAACATCTAGTGGTTGGATAGCGTGAAGTGCACACAACATCTAGTGGACCTC DNA 2: GAGGTCCACTAGATGTTGTGTGCACTTCACGCTATCCAACCACTAGATGTTGTGTTTGGC | 476 ± 80 | 6600 ± 536 | 3 ± 0.6 | 66 ± 12
Eco nrdHIEF box 1 duplicated (dsDNA) DNA 1: GTCTCTTGCTATATATTGTGTGGTTGAATCTTTTTTTTGCTATATATTGTGTCTCTG DNA 2: CAGAGACACAATATATAGCAAAAAAAAGATTCAACCACACAATATATAGCAAGAGAC | – | – | – | 213 ± 40
Synt 25 bp spacer (dsDNA) DNA 1: GCCAAACACAACATCTAGTGGTTGGATAGCGTGAAGTTCACCTAGCACACAACATCTAGTGGACCTC DNA 2: GAGGTCCACTAGATGTTGTGTGCTAGGTGAACTTCACGCTATCCAACCACTAGATGTTGTGTTTGGC | 4050 ± 272 | 4370 ± 343 | 25 ± 12 | 326 ± 44
Synt 27 bp spacer (dsDNA) DNA 1: GCCAAACACAACATCTAGTGGTTGGATAGCGTGAAGTTACCACCTAGCACACAACATCTAGTGGACCTC DNA 2: GAGGTCCACTAGATGTTGTGTGCTAGGTGGTAACTTCACGCTATCCAACCACTAGATGTTGTGTTTGGC | 3500 ± 626 | 3190 ± 238 | 18 ± 6 | 27 ± 8
Synt 19 bp spacer (dsDNA) DNA 1: GCCAAACACAACATCTAGTGGTTGGATAGCGTGAAGTAGCACACAACATCTAGTGGACCTC DNA 2: GAGGTCCACTAGATGTTGTGTGCTACTTCACGCTATCCAACCACTAGATGTTGTGTTTGGC | 1660 ± 221 | 11600 ± 340 | 51 ± 7 | 601 ± 113
Synt 12 bp spacer (dsDNA) DNA 1: GCCAAACACAACATCTAGTGGTTGGATAGGAGCACACAACATCTAGTGGACCTC DNA 2: GAGGTCCACTAGATGTTGTGTGCTCCTATCCAACCACTAGATGTTGTGTTTGGC | 580 ± 79 | 5060 ± 511 | 37 ± 6 | 1380 ± 309
Sth nrdDG (16 bp spacer) (dsDNA) DNA 1: TCGAAAATCAATATATAGTGGTTGAGATAAAAATATACCACAATATATTGATTTTCCT DNA 2: AGGAAAATCAATATATTGTGGTATATTTTTATCTCAACCACTATATATTGATTTTCGA | – | 1150 ± 320 | – | –
Synt 26 bp spacer (dsDNA) DNA 1: GCCAAACACAACATCTAGTGGTTGGATAGCGTGAAGTTCCACCTAGCACACAACATCTAGTGGACCTC DNA 2: GAGGTCCACTAGATGTTGTGTGCTAGGTGGAACTTCACGCTATCCAACCACTAGATGTTGTGTTTGGC | 4400 ± 355 | 2910 ± 225 | – | 24 ± 7
Synt 15 bp spacer (dsDNA) DNA 1: GCCAAACACAACATCTAGTGGTTGGATAGCGTGAGCACACAACATCTAGTGGACCTC DNA 2: GAGGTCCACTAGATGTTGTGTGCTCACGCTATCCAACCACTAGATGTTGTGTTTGGC | 45 ± 13 | 55 ± 14 | 1 ± 0.2 | –
Eco nrdHIEF box 2 duplicated (dsDNA) DNA 1: GTCTCCAACTACATCTAGTATGGTTGAATCTTTTTTCAACTACATCTAGTATCTCTG DNA 2: CAGAGATACTAGATGTAGTTGAAAAAAGATTCAACCATACTAGATGTAGTTGGAGAC | – | – | – | 99 ± 33
Synt 17 bp spacer (dsDNA) DNA 1: GCCAAACACAACATCTAGTGGTTGGATAGCGTGAAGGCACACAACATCTAGTGGACCTC DNA 2: GAGGTCCACTAGATGTTGTGTGCCTTCACGCTATCCAACCACTAGATGTTGTGTTTGGC | 21 ± 7 | 340 ± 83 | 1 ± 0.4 | 45 ± 6
Synt 14 bp spacer (dsDNA) DNA 1: GCCAAACACAACATCTAGTGGTTGGATAGCTGAGCACACAACATCTAGTGGACCTC DNA 2: GAGGTCCACTAGATGTTGTGTGCTCAGCTATCCAACCACTAGATGTTGTGTTTGGC | 154 ± 28 | 699 ± 109 | 2 ± 0.5 | 169 ± 27
